Data taken from paper PMC8822709 (Journal of Biomedical Science, 2022).

Key:
PEG-precipitated EV-A71 = molecular target: T1, PEG-precipitated EV-A71 (Enterovirus A71, stock strain …, UniProt Q9DY01); assay: ELISA; conditions: both partners purified
T1 construct: also called EV-A71 protein; EV-A71 capsid proteins; source: PEG-precipitated EV-A71 (virus propagated in RD cells)

[1] = molecular target: T2, ENO1 recombinant protein (α-enolase) (Homo sapiens, UniProt P06733); assay: ELISA; indirect ELISA; recombinant protein (5 μg/mL) coated in carbonate-bicarbonate pH 9.6, 07-IgG1 diluted and added at 37 °C for 1 h, HRP goat anti-human IgG, OD 450 nm; conditions: both partners purified
T2 construct: also called hENO1; rhENO1; source: recombinant protein
T2 sequence (P06733 whole entry): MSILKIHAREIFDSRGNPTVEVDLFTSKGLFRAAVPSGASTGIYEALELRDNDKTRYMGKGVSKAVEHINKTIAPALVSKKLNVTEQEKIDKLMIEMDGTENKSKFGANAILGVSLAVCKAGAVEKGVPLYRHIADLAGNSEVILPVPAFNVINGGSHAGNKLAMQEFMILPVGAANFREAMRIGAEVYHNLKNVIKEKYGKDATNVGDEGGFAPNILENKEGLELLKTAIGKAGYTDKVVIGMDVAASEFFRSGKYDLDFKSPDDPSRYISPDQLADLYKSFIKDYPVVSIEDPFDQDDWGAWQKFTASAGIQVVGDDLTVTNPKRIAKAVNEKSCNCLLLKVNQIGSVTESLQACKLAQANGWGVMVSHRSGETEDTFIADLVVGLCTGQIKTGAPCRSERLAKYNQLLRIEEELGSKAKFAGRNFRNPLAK

[2] = molecular target: T3, ENO1 (Alpha-enolase), endogenous in RD cells (Homo sapiens (RD cells), UniProt P06733); assay: affinity purification with mass spectrometry; conditions: one partner purified
T3 construct: also called α-enolase
T3 sequence (P06733 whole entry): as above

B1: 07-human IgG1 antibody (antibody, V domains shown)
VH: EVQLLESGAVVKKPGESLKISCTGSGYVFRDYWVGWVRQMPGKGLEWLGMIYPDEFDIRYSPSFQGQVTISADKSIDTAYLQLSSLEASDTGIYYCARHGNTGCGGTMCYKSYLYYGMDVWGQGTTVTVS
VL: ELVLTQSPSVSVSPGQTASITCSGDKLGDKYACWYQQKPGQSPVLVIYQDNKRPSGIPERFSGSNSGNTATLTISGTRAMDEADYYCQAWDSSTCYVFGTGTKLTVL
notes: also called 07-IgG1; clone 07 recombinant antibody; source: ExpiCHO, co-transfected (pcDNA3.4 heavy and light chain), purified by protein A resin
B1: no binding (PEG-precipitated EV-A71); binds [1]; binds [2].
